According to patent publication US7264809B1, “Methods of inhibiting platelet activation and recruitment” (Immunex Corporation, priority 1998, dated 2007):

What was measured:
murine platelets = experiment: Ex vivo aggregation of murine platelets; format: in vivo, C57BL/6J mice; settings: PRP 1 hour after soluble CD39 4 mg/kg or aspirin 5 mg/kg
Experimental: C57BL/6J mice (6-8 wk) were obtained from Jackson Laboratories (Bar Harbor, Me.). […] 80 μL of 3.8% trisodium citrate was added to each mL of blood. […] The PRP contained 400-700×10^3 platelets per μL. All experiments were completed within 2 hours of blood collection. PRP (200 μL) was preincubated, for 3 min. at 37° C., with 100 μL Tris-buffered saline buffer ([…], 5 mM glucose, pH 7.4) in an aggregometer cuvette (Lumiaggregometer; Chrono-Log, Havertown, Pa.), and the platelet agonists ADP, collagen, or sodium arachidonate were added at the final concentrations indicated.

[1] = Murine model of stroke (middle cerebral artery occlusion); format: in vivo, mice
Experimental: Anesthetized mice were maintained at 37±2° C. during and for 90 min following surgery. A midline neck incision was made and the right carotid artery exposed. Middle cerebral artery occlusion was accomplished by advancing a 13-mm heat-blunt tipped 6-0 nylon suture via an arteriotomy in the external carotid stump. The external carotid artery was cauterized to secure hemostasis, and arterial flow reestablished. […] Surgical staples were used for wound closure. […]

platelets [2] = experiment: Platelet aggregation in human platelet-rich plasma; format: cell-based
Experimental: After obtaining informed consent from volunteers, blood was collected via plastic tubing using acid citrate-dextrose (38 mM citric acid; 75 mM sodium citrate; 135 mM glucose) as anticoagulant. Where indicated, volunteers had ingested 650 mg acetylsalicylic acid (ASA) 18 h prior to blood donation. […] The stock suspension of PRP was maintained at room temperature under 5% CO2-air. […] Total volumes were adjusted to 300 μl with TSG buffer (Marcus et al., J. Clin. Invest. 88:1690, 1991; Marcus et al., J. Clin. Invest. 99:1351, 1997). […] A mock-treated sample was also prepared in which the FSBA solution was replaced with water. After incubating at 37° for 90 min., the samples were centrifuged in a Centricon-10 filter unit (Amicon Corp.) for 1 hour at 5,500 rpm and buffer exchanged into PBS to remove unreacted material.

[3] = Phosphate release assay for ATPase activity; format: biochemical; settings: for ATPase activity, CPM × 10^3 (net counts): Table 3, 5-day 1× COS-1 sups; for ATPase activity, CPM Release × 10^3 (net counts): unconcentrated COS-1 CM
Experimental: This example describes an ATPase assay that may be used to track enzyme activity. Samples (approximately 100 μl of either concentrated CM or purified polypeptide) are combined with 20 μl of 10× assay buffer (200 mM HEPES, 1.2 M NaCl, 50 mM KCl, 15 mM CaCl2, 15 mM MgCl2 and 3 mM ATP) and sterile water is added to a final volume of 200 μl. Radiolabeled ATP (0.8 μCi γ [^32P] ATP; Amersham, Arlington Heights, Ill.) is added and the mixture incubated for 20 minutes at 37° C. […] After centrifugation (14K rpm for 10 minutes), the supernatant is assayed for free ^32P using a scintillation counter. Data are expressed as raw counts or net counts, or as picomoles of ATP degraded per minute. […] The transfections were repeated and the CM (10, 20 and 30 μL, unconcentrated) was assayed essentially as described in Example 7. […] ATPase levels in CM from COS-1 cells transfected with pIL2LFlagSolCD39 increased with time in culture over at least 4 days post-transfection. To determine whether activity was affected by removal of the N-terminal FLAG® tag, COS-1 cells were transfected with pIL2LFlagSolCD39 and pIL2LSolCD39 and supernatants (sups) were harvested after 5 days. Samples of 10, 20 and 30 μL of 1× sups were assayed for ATPase activity as described in Example 7. […] The expression of Trim1 and Trim2 constructs was analyzed in COS-1 cells cultured in 10 cm plates. After 5 days of incubation, 1× supernatants were examined via ELISA (using anti-CD39) and the phosphate-release assay described in Example 7. […] Expression levels, however, appeared to be reduced 3-4 fold.

[4] = Enzymatic (ATPase and ADPase) activity of site-directed mutants; format: biochemical
Experimental: Mutants were assayed for enzymatic (ATPase and ADPase) and platelet inhibitory (dose-dependent inhibition of platelet aggregation) activities. For one series of mutants, residues within the conserved apyrase regions were replaced with alanine.

platelets [5] = experiment: Ex vivo additive inhibition of platelet aggregation in patient platelet rich plasma; format: cell-based, human; settings: patient PRP, no SolCD39
[6] = Phosphate release assay for ATPase activity; format: biochemical; settings: 100 μL of 10-fold concentrated CM from COS-1 transfectants; 10× buffer with 30 mM cold ATP

Molecule: CC(=O)Oc1ccccc1C(=O)O [Aspirin, acetylsalicylic acid, reference compound]
- ex vivo platelet aggregation, collagen (murine platelets; 2.5 μg/ml collagen): strongly aggregated
- ex vivo platelet aggregation, ADP (murine platelets; 10 μM ADP): strongly aggregated
- ex vivo platelet aggregation, arachidonate (murine platelets; 0.1 mM sodium arachidonate): blocked
- postischemic cerebral perfusion / blood flow ([1]; 24 hours after stroke induction): no improvement
- intracerebral hemorrhage ([1]; following stroke, spectrophotometric): increased
- cerebral infarct volume ([1]; preoperative administration, aspirin 5 mg/kg): not statistically significant

Molecule: COc1ccc2c(c1)c(CC(=O)O)c(C)n2C(=O)c1ccc(Cl)cc1 [indomethacin, reference compound]
- platelet responsiveness to 5 μM ADP (platelets [2]; PRP with or without 10 μM indomethacin, CM containing solCD39 from COS-1 and CHO cells): partial reversal

B1: pIL2LTrim1: huIL2 leader joined to solCD39 with an intervening alanine residue (SEQ ID NO:27) (protein)
chain: MALWIDRMQLLSCIALSLALVTNSATQNKALPENVKYGIVLDAGSSHTSLYIYKWPAEKENDTGVVHQVEECRVKGPGISKFVQKVNEIGIYLTDCMERAREVIPRSQHQETPVYLGATAGMRLLRMESEELADRVLDVVERSLSNYPFDFQGARIITGQEEGAYGWITINYLLGKFSQKTRWFSIVPYETNNQETFGALDLGGASTQVTFVPQNQTIESPDNALQFRLYGKDYNVYTHSFLCYGKDQALWQKLAKDIQVASNEILRDPCFHPGYKKVVNVSDLYKTPCTKRFEMTLPFQQFEIQGIGNYQQCHQSILELFNTSYCPYSQCAFNGIFLPPLQGDFGAFSAFYFVMKFLNLTSEKVSQEKVTEMMKKFCAQPWEEIKTSYAGVKEKYLSEYCFSGTYILSLLLQGYHFTADSWEHIHFIGKIQGSDAGWTLGYMLNLTNMIPAEQPLSTPLSHST
- Activity (pmol ATP/min/μg) × 10^3 ([3]; specific activity in COS-1 CM, concentration by ELISA): 8.38 (pmol ATP/min/μg) × 10^3

B2: E174A: CD39 mutant, Glutamate174 replaced with alanine (protein, UniProt P49961 1-510, looked up, variant E174A)
Ectonucleoside triphosphate …: MEDTKESNVKTFCSKNILAILGFSSIIAVIALLAVGLTQNKALPENVKYGIVLDAGSSHTSLYIYKWPAEKENDTGVVHQVEECRVKGPGISKFVQKVNEIGIYLTDCMERAREVIPRSQHQETPVYLGATAGMRLLRMESEELADRVLDVVERSLSNYPFDFQGARIITGQEAGAYGWITINYLLGKFSQKTRWFSIVPYETNNQETFGALDLGGASTQVTFVPQNQTIESPDNALQFRLYGKDYNVYTHSFLCYGKDQALWQKLAKDIQVASNEILRDPCFHPGYKKVVNVSDLYKTPCTKRFEMTLPFQQFEIQGIGNYQQCHQSILELFNTSYCPYSQCAFNGIFLPPLQGDFGAFSAFYFVMKFLNLTSEKVSQEKVTEMMKKFCAQPWEEIKTSYAGVKEKYLSEYCFSGTYILSLLLQGYHFTADSWEHIHFIGKIQGSDAGWTLGYMLNLTNMIPAEQPLSTPLSHSTYVFLMVLFSLVLFTVAIIGLLIFHKPSYFWKDMV
- effect on platelet responsiveness (platelets [2]; mutant): no effect
- enzymatic activity of mutant ([4]; alanine replacement in conserved apyrase region): completely devoid

B3: S218A: CD39 mutant, Serine218 replaced with alanine (protein, UniProt P49961 1-510, looked up, variant S218A)
Ectonucleoside triphosphate …: MEDTKESNVKTFCSKNILAILGFSSIIAVIALLAVGLTQNKALPENVKYGIVLDAGSSHTSLYIYKWPAEKENDTGVVHQVEECRVKGPGISKFVQKVNEIGIYLTDCMERAREVIPRSQHQETPVYLGATAGMRLLRMESEELADRVLDVVERSLSNYPFDFQGARIITGQEEGAYGWITINYLLGKFSQKTRWFSIVPYETNNQETFGALDLGGAATQVTFVPQNQTIESPDNALQFRLYGKDYNVYTHSFLCYGKDQALWQKLAKDIQVASNEILRDPCFHPGYKKVVNVSDLYKTPCTKRFEMTLPFQQFEIQGIGNYQQCHQSILELFNTSYCPYSQCAFNGIFLPPLQGDFGAFSAFYFVMKFLNLTSEKVSQEKVTEMMKKFCAQPWEEIKTSYAGVKEKYLSEYCFSGTYILSLLLQGYHFTADSWEHIHFIGKIQGSDAGWTLGYMLNLTNMIPAEQPLSTPLSHSTYVFLMVLFSLVLFTVAIIGLLIFHKPSYFWKDMV
- ADPase activity retained ([4]; mutant): less than 10%

B4: Abciximab: platelet-specific chimeric antibody, glycoprotein IIb/IIIa antagonist, trade name ReoPro (antibody, chains of the INN, looked up, V domains shown)
VH: EVQLQQSGTVLARPGASVKMSCEASGYTFTNYWMHWVKQRPGQGLEWIGAIYPGNSDTSYIQKFKGKAKLTAVTSTTSVYMELSSLTNEDSAVYYCTLYDGYYVFAYWGQGTLVTVSA
VL: EIVLTQSPVTLSVTPGDSVSLSCRASRDISNNLHWFQQTSHESPRLLIKYASQSMSGIPSRFSGSGSGTDFTLSINSVETEDFGMYFCQQTNSWPYTFGGGTKLEIK
modifications: Fab
notes: platelet-specific chimeric antibody, glycoprotein IIb/IIIa antagonist, trade name ReoPro
- Platelet aggregation, baseline (platelets [5]; ADP, clopidogrel, ticlopidine, abciximab groups also received aspirin): 0 ± 0 arbitrary units
- Platelet aggregation, baseline (platelets [5]; Collagen): 0 ± 0 arbitrary units
- Platelet aggregation, baseline (platelets [5]; TRAP): 46 ± 6 arbitrary units

B5: pIL2LFlagSolCD39: N-terminally FLAG-tagged solCD39 with human proinsulin/IL2 leader and 12 mature IL2 residues (SEQ ID NO:25) (protein)
chain: MALWIDRMQLLSCIALSLALVTNSAPTSSSTKKTQLTSSGDYKDDDDKTQNKALPENVKYGIVLDAGSSHTSLYIYKWPAEKENDTGVVHQVEECRVKGPGISKFVQKVNEIGIYLTDCMERAREVIPRSQHQETPVYLGATAGMRLLRMESEELADRVLDVVERSLSNYPFDFQGARIITGQEEGAYGWITINYLLGKFSQKTRWFSIVPYETNNQETFGALDLGGASTQVTFVPQNQTIESPDNALQFRLYGKDYNVYTHSFLCYGKDQALWQKLAKDIQVASNEILRDPCFHPGYKKVVNVSDLYKTPCTKRFEMTLPFQQFEIQGIGNYQQCHQSILELFNTSYCPYSQCAFNGIFLPPLQGDFGAFSAFYFVMKFLNLTSEKVSQEKVTEMMKKFCAQPWEEIKTSYAGVKEKYLSEYCFSGTYILSLLLQGYHFTADSWEHIHFIGKIQGSDAGWTLGYMLNLTNMIPAEQPLSTPLSHST
modifications: CDS (1)..(1461)
- ATPase activity, CPM × 10^3 (net counts) ([3]; 10 μL): 23.6 CPM × 10^3
- ATPase activity, CPM × 10^3 (net counts) ([3]; 20 μL): 40.2 CPM × 10^3
- ATPase activity, CPM × 10^3 (net counts) ([3]; 30 μL): 54.4 CPM × 10^3
- ATPase activity, CPM Release × 10^3 (net counts) ([3]; 10 μL): 24.71 CPM × 10^3
- ATPase activity, CPM Release × 10^3 (net counts) ([3]; 20 μL): 43.92 CPM × 10^3
- ATPase activity, CPM Release × 10^3 (net counts) ([3]; 30 μL): 56.93 CPM × 10^3
- ATPase activity, CPM Release × 10^3 (raw counts) [6]: 99.96 CPM × 10^3
